Assay results as given in publication PMC5308896, “A conformational switch regulates the ubiquitin ligase HUWE1” (eLife, 2017).
Ends that are not written are not given here.

Legend:
Assay in all cases: fluorescence polarisation; apparent KD; constant 1 μM TAMRA-labelled p14ARF (45–64) peptide titrated with HUWE1 protein; 25°C, 20 mM HEPES pH 8.0, 150 mM NaCl, 10% glycerol, 1 mM EDTA, 5 mM DTT; three independent experiments
Settings in all cases: both partners purified
HUWE1 (3843–4374) = target: T1, HUWE1 (3843–4374) (human, UniProt Q7Z6Z7 3843-4374)
T1 construct: source: LOBSTR RIL cells, purified (IMAC, gel filtration)
T1 sequence (looked up): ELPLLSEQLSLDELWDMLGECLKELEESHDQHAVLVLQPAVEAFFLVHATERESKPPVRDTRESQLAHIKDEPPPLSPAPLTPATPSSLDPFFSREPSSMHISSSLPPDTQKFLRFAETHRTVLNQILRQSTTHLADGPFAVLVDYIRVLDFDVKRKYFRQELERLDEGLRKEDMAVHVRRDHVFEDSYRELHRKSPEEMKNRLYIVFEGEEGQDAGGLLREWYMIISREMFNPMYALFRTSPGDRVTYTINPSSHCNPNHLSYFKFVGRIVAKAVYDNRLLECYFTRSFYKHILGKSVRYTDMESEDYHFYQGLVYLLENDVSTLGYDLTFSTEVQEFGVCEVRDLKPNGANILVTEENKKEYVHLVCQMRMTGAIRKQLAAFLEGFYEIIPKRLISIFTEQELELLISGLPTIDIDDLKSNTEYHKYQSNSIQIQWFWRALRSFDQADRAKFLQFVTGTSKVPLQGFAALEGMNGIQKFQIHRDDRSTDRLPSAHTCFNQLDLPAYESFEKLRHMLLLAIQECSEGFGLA

[1] = target: T2, HUWE1 (3951–4374), untagged (human, UniProt Q7Z6Z7 3951-4374)
T2 construct: Monomer MW 49.752 kDa (AUC methods); source: LOBSTR RIL cells, purified (IMAC, TEV protease cleavage, second IMAC, gel filtration); not shown: His6, N-terminal, cleaved
T2 sequence (looked up): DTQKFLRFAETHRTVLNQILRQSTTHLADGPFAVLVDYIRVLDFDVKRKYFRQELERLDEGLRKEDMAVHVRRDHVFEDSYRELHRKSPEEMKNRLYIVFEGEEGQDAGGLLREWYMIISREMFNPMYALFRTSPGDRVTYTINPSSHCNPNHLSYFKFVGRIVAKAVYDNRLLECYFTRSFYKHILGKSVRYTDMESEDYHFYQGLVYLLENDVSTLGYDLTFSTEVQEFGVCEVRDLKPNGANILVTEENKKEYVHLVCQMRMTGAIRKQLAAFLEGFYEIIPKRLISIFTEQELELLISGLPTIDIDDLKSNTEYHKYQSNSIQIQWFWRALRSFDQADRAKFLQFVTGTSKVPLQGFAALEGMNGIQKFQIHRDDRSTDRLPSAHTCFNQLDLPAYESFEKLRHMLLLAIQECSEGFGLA

[2] = target: T3, HUWE1 (3993–4374), HECT domain (human, UniProt Q7Z6Z7 3993-4374)
T3 construct: also called isolated HECT domain; source: LOBSTR RIL cells, purified (IMAC, gel filtration)
T3 sequence (looked up): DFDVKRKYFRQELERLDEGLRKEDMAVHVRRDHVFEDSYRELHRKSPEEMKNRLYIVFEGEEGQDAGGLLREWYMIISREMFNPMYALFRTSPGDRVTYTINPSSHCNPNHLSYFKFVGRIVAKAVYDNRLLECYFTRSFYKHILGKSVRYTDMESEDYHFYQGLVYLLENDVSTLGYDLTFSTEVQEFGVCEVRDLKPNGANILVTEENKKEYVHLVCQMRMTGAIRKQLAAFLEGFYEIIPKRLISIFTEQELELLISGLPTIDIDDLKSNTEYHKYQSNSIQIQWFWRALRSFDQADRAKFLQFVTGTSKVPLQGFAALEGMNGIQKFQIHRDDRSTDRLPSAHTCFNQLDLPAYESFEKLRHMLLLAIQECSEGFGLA

Kd (HUWE1 (3843–4374)): 5.2 ± 0.2 µM
Kd [1]: 280 ± 40 µM
Kd [2]: 230 ± 40 µM
B1: fluorophor-labeled p14ARF-derived peptide (residues 45–64), TAMRA-labelled (peptide)
peptide: LVLMLLRSQRLGQQPLPRRPK(TAMRA)
notes: p14ARF (alternative reading frame product of CDKN2A), human, residues 45–64; additional lysine residue at the C-terminus that carries the TAMRA label (told in words); also called p14ARF-peptide; p14ARF (45-64); source: synthetic peptide, bought: Elim Biopharm
